Data from publication doi:10.1101/2021.05.23.445342 (2021).

Target: Calcineurin (human PPP3CA / PPP3R1 heterodimer) (human, UniProt Q08209 1-521; P63098 1-170)
Assay: SPR; apparent, steady-state fit

B1: Biotin-Cys-AKAP5c_(ILVF->SA) (domain or fragment)
chain: CVAEETKPKDTELSQESDFKENGITEEKSKSEESKRMEPIAIIITDTEISEFDVTKSKNVPKQASASAENEQVGVFANDNGFEDRTSEQYETASAETASSLVKNAAQSSAEQSANEMASDDNKINNLLQ
modifications: biotin (EZ-Link Maleimide-PEG2-Biotin) on the unique added N-terminal Cys
Kd: 550 nM
